T1: kinase-deficient IKKα (K44M), Q60680
T1 chain: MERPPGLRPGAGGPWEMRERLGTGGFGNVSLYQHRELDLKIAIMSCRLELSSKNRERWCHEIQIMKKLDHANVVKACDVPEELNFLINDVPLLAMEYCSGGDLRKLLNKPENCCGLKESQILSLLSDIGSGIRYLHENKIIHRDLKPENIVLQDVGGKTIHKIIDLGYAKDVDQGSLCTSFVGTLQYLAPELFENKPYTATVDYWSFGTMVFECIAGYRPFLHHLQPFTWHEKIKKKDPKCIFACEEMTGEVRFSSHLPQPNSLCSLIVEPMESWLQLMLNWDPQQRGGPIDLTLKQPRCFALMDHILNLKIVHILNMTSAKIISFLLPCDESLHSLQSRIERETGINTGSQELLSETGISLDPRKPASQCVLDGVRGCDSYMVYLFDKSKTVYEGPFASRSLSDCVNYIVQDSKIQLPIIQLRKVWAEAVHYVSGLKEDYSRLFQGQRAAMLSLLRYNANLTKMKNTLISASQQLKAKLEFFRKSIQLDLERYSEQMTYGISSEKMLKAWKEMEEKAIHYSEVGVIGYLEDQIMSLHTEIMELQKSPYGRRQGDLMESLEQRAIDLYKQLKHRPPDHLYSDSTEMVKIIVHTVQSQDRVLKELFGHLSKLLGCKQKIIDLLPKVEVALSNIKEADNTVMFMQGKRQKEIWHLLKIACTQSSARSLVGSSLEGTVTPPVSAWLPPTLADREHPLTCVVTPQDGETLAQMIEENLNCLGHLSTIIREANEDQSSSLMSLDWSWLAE

T2: IKKα (as present in transfected 293 cells)
T2 sequence (O15111 1-745, species assumed, looked up): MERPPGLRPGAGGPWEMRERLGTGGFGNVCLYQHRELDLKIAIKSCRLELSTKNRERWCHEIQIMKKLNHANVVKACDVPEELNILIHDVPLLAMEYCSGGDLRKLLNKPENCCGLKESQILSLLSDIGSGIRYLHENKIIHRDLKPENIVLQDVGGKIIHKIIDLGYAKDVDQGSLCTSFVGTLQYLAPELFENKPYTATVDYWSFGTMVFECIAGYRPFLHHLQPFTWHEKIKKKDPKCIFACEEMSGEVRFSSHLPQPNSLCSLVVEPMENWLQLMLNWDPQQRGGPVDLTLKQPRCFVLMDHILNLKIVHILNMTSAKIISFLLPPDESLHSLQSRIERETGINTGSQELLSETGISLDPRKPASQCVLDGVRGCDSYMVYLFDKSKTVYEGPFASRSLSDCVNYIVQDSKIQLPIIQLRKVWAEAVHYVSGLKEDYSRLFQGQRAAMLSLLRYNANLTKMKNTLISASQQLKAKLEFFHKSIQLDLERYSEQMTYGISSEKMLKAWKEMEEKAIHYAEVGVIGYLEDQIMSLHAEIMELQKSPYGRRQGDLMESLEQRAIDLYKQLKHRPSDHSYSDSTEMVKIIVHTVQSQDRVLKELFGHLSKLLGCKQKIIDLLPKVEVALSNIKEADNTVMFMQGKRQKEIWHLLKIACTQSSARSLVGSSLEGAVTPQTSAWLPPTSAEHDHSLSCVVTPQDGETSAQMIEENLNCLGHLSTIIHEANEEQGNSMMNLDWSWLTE

B1: Myc-NIK (protein)
chain: MAVMEMACPGAPGSAVGQQKELPKPKEKTPPLGKKQSSVYKLEAVEKSPVFCGKWEILNDVITKGTAKEGSEAGPAAISIIAQAECENSQEFSPTFSERIFIAGSKQYSQSESLDQIPNNVAHATEGKMARVCWKGKRRSKARKKRKKKSSKSLAHAGVALAKPLPRTPEQESCTIPVQEDESPLGAPYVRNTPQFTKPLKEPGLGQLCFKQLGEGLRPALPRSELHKLISPLQCLNHVWKLHHPQDGGPLPLPTHPFPYSRLPHPFPFHPLQPWKPHPLESFLGKLACVDSQKPLPDPHLSKLACVDSPKPLPGPHLEPSCLSRGAHEKFSVEEYLVHALQGSVSSSQAHSLTSLAKTWAARGSRSREPSPKTEDNEGVLLTEKLKPVDYEYREEVHWATHQLRLGRGSFGEVHRMEDKQTGFQCAVKKVRLEVFRAEELMACAGLTSPRIVPLYGAVREGPWVNIFMELLEGGSLGQLVKEQGCLPEDRALYYLGQALEGLEYLHSRRILHGDVKADNVLLSSDGSHAALCDFGHAVCLQPDGLGKSLLTGDYIPGTETHMAPEVVLGRSCDAKVDVWSSCCMMLHMLNGCHPWTQFFRGPLCLKIASEPPPVREIPPSCAPLTAQAIQEGLRKEPIHRVSAAELGGKVNRALQQVGGLKSPWRGEYKEPRHPPPNQANYHQTLHAQPRELSPRAPGPRPAEETTGRAPKLQPPLPPEPPEPNKSPPLTLSKEESGMWEPLPLSSLEPAPARNPSSPERKATVPEQELQQLEIELFLNSLSQPFSLEEQEQILSCLSIDSLSLSDDSEKNPSKASQSSRDTLSSGVHSWSSQAEARSSSWNMVLARGRPTDTPSYFNGVKVQIQSLNGEHLHIREFHRVKVGDIATGISSQIPAAAFSLVTKDGQPVRYDMEVPDSGIDLQCTLAPDGSFAWSWRVKHGQLENRP
B2: NIK-T552A (protein)
chain: MAVMEMACPGAPGSAVGQQKELPKPKEKTPPLGKKQSSVYKLEAVEKSPVFCGKWEILNDVITKGTAKEGSEAGPAAISIIAQAECENSQEFSPTFSERIFIAGSKQYSQSESLDQIPNNVAHATEGKMARVCWKGKRRSKARKKRKKKSSKSLAHAGVALAKPLPRTPEQESCTIPVQEDESPLGAPYVRNTPQFTKPLKEPGLGQLCFKQLGEGLRPALPRSELHKLISPLQCLNHVWKLHHPQDGGPLPLPTHPFPYSRLPHPFPFHPLQPWKPHPLESFLGKLACVDSQKPLPDPHLSKLACVDSPKPLPGPHLEPSCLSRGAHEKFSVEEYLVHALQGSVSSSQAHSLTSLAKTWAARGSRSREPSPKTEDNEGVLLTEKLKPVDYEYREEVHWATHQLRLGRGSFGEVHRMEDKQTGFQCAVKKVRLEVFRAEELMACAGLTSPRIVPLYGAVREGPWVNIFMELLEGGSLGQLVKEQGCLPEDRALYYLGQALEGLEYLHSRRILHGDVKADNVLLSSDGSHAALCDFGHAVCLQPDGLGKSLLAGDYIPGTETHMAPEVVLGRSCDAKVDVWSSCCMMLHMLNGCHPWTQFFRGPLCLKIASEPPPVREIPPSCAPLTAQAIQEGLRKEPIHRVSAAELGGKVNRALQQVGGLKSPWRGEYKEPRHPPPNQANYHQTLHAQPRELSPRAPGPRPAEETTGRAPKLQPPLPPEPPEPNKSPPLTLSKEESGMWEPLPLSSLEPAPARNPSSPERKATVPEQELQQLEIELFLNSLSQPFSLEEQEQILSCLSIDSLSLSDDSEKNPSKASQSSRDTLSSGVHSWSSQAEARSSSWNMVLARGRPTDTPSYFNGVKVQIQSLNGEHLHIREFHRVKVGDIATGISSQIPAAAFSLVTKDGQPVRYDMEVPDSGIDLQCTLAPDGSFAWSWRVKHGQLENRP
B3: NIK-S549A (protein)
chain: MAVMEMACPGAPGSAVGQQKELPKPKEKTPPLGKKQSSVYKLEAVEKSPVFCGKWEILNDVITKGTAKEGSEAGPAAISIIAQAECENSQEFSPTFSERIFIAGSKQYSQSESLDQIPNNVAHATEGKMARVCWKGKRRSKARKKRKKKSSKSLAHAGVALAKPLPRTPEQESCTIPVQEDESPLGAPYVRNTPQFTKPLKEPGLGQLCFKQLGEGLRPALPRSELHKLISPLQCLNHVWKLHHPQDGGPLPLPTHPFPYSRLPHPFPFHPLQPWKPHPLESFLGKLACVDSQKPLPDPHLSKLACVDSPKPLPGPHLEPSCLSRGAHEKFSVEEYLVHALQGSVSSSQAHSLTSLAKTWAARGSRSREPSPKTEDNEGVLLTEKLKPVDYEYREEVHWATHQLRLGRGSFGEVHRMEDKQTGFQCAVKKVRLEVFRAEELMACAGLTSPRIVPLYGAVREGPWVNIFMELLEGGSLGQLVKEQGCLPEDRALYYLGQALEGLEYLHSRRILHGDVKADNVLLSSDGSHAALCDFGHAVCLQPDGLGKALLTGDYIPGTETHMAPEVVLGRSCDAKVDVWSSCCMMLHMLNGCHPWTQFFRGPLCLKIASEPPPVREIPPSCAPLTAQAIQEGLRKEPIHRVSAAELGGKVNRALQQVGGLKSPWRGEYKEPRHPPPNQANYHQTLHAQPRELSPRAPGPRPAEETTGRAPKLQPPLPPEPPEPNKSPPLTLSKEESGMWEPLPLSSLEPAPARNPSSPERKATVPEQELQQLEIELFLNSLSQPFSLEEQEQILSCLSIDSLSLSDDSEKNPSKASQSSRDTLSSGVHSWSSQAEARSSSWNMVLARGRPTDTPSYFNGVKVQIQSLNGEHLHIREFHRVKVGDIATGISSQIPAAAFSLVTKDGQPVRYDMEVPDSGIDLQCTLAPDGSFAWSWRVKHGQLENRP
B4: NIK-T559A (protein)
chain: MAVMEMACPGAPGSAVGQQKELPKPKEKTPPLGKKQSSVYKLEAVEKSPVFCGKWEILNDVITKGTAKEGSEAGPAAISIIAQAECENSQEFSPTFSERIFIAGSKQYSQSESLDQIPNNVAHATEGKMARVCWKGKRRSKARKKRKKKSSKSLAHAGVALAKPLPRTPEQESCTIPVQEDESPLGAPYVRNTPQFTKPLKEPGLGQLCFKQLGEGLRPALPRSELHKLISPLQCLNHVWKLHHPQDGGPLPLPTHPFPYSRLPHPFPFHPLQPWKPHPLESFLGKLACVDSQKPLPDPHLSKLACVDSPKPLPGPHLEPSCLSRGAHEKFSVEEYLVHALQGSVSSSQAHSLTSLAKTWAARGSRSREPSPKTEDNEGVLLTEKLKPVDYEYREEVHWATHQLRLGRGSFGEVHRMEDKQTGFQCAVKKVRLEVFRAEELMACAGLTSPRIVPLYGAVREGPWVNIFMELLEGGSLGQLVKEQGCLPEDRALYYLGQALEGLEYLHSRRILHGDVKADNVLLSSDGSHAALCDFGHAVCLQPDGLGKSLLTGDYIPGAETHMAPEVVLGRSCDAKVDVWSSCCMMLHMLNGCHPWTQFFRGPLCLKIASEPPPVREIPPSCAPLTAQAIQEGLRKEPIHRVSAAELGGKVNRALQQVGGLKSPWRGEYKEPRHPPPNQANYHQTLHAQPRELSPRAPGPRPAEETTGRAPKLQPPLPPEPPEPNKSPPLTLSKEESGMWEPLPLSSLEPAPARNPSSPERKATVPEQELQQLEIELFLNSLSQPFSLEEQEQILSCLSIDSLSLSDDSEKNPSKASQSSRDTLSSGVHSWSSQAEARSSSWNMVLARGRPTDTPSYFNGVKVQIQSLNGEHLHIREFHRVKVGDIATGISSQIPAAAFSLVTKDGQPVRYDMEVPDSGIDLQCTLAPDGSFAWSWRVKHGQLENRP

What was measured:
[1] = molecular target: T1, kinase-deficient IKKα (K44M), Q60680
[2] = molecular target: T2, IKKα (as present in transfected 293 …)

Protein	phosphorylation of coimmunoprecipitated IKKα (K44M) in immunocomplex kinase reaction [1]	IKKα activity (in vitro kinase reaction on GST-IκBα (1-62)) [2]
B1	wild-type NIK and mutant NIK-S549A and NIK-T552A effectively phosphorylated the coimmunoprecipitated IKKα (K44M) protein in vitro	
B2	wild-type NIK and mutant NIK-S549A and NIK-T552A effectively phosphorylated the coimmunoprecipitated IKKα (K44M) protein in vitro	
B3	wild-type NIK and mutant NIK-S549A and NIK-T552A effectively phosphorylated the coimmunoprecipitated IKKα (K44M) protein in vitro	
B4	failed to phosphorylate the coprecipitating IKKα	the mutant NIK-T559A failed to induce IKKα activity

Reference: patent US6645728
